target: porcine plasminogen (porcine); assay: SPR

Question: Which Kd does the source give for “F3_(P146/232), recombinant C-terminal fragment of P146 (Mhp684) of Mycoplasma hyopneumoniae strain 232 (domain or fragment)” here?
Answer: 46 nM

Question: What about the kon of the same substance?
Answer: 170000 M⁻¹ s⁻¹

Question: “F3_(P146/232ΔR), strain 232 F3_(P146) without its C-terminal arginine (domain or fragment)” was tested. Which Kd did it give?
Answer: 220 nM

Question: And the kon?
Answer: 13000 M⁻¹ s⁻¹

Question: Which results are given for “F3_(P146/J), recombinant C-terminal fragment of P146 (MHJ_0663) of Mycoplasma hyopneumoniae strain J (domain or fragment)”?
Answer: Kd: 39 nM; kon: 46000 M⁻¹ s⁻¹

Question: What does the source list for “F3_(P146/JΔK), strain J F3_(P146) without its C-terminal lysine (domain or fragment)”?
Answer: Kd: 210 nM; kon: 13000 M⁻¹ s⁻¹
